Experimental data taken from the nanobody polyreactivity screen of Harvey et al. (2022).

Experiment: yeast display, Sf9 membrane polyspecificity reagent, FACS + sequencing; frameworks hold sequencing errors
How it was run: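 After 36–48 hours of galactose induction, yeast (Saccharomyces cerevisiae BJ5465) displaying a synthetic nanobody library were stained at 4 °C for 1 hour with 10% biotinylated, detergent-solubilized Sf9 membrane reagent. Streptavidin microbeads enriched the stained cells before FACS sorting into low and high (top ~1%) gates on anti-HA and streptavidin fluorescence. Each clone's polyreactivity label reflects its gate of origin.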

Row | Sequence | polyreactivity (PSR sort gate)
1 | QVQLVESGGGLVQAGGSLRLSCAASGRIFDAKVMGWYRQAPGKERELVAAISASAGSTSYADSVKGRFTISRDNAKNTVYLQMNSLKPEDTSVYYCAADPYQLWHYYYFGMDYWGQGTQVTVSS | low polyreactivity
2 | QVQLVESGGGLVQAGGSLRLSCAASGRIFDDNAMGWYRQAPGKERELVADINNATSTNYADSVKGRFTISRDNAKNTVYLQMNSLKPEDTAVYYCAADDYIYYRILGDSFVYKAYGYWGQGTQVTVSS | low polyreactivity
3 | QVQLVESGGGLVQAGGSLRLSCAASGRIFDDYAMGWYRQAPGKERELVAAIRSGGNTNYADSVKGRFTISRDNAKNTVYLQMNSLKPEDTADYYCAADTWFRAGYFVVYYDYWGQGTQVTVSS | low polyreactivity
4 | QVQLVESGGGLVQAGGSLRLSCAASGRIFDGNARGWYIQAPGKERELVAAISRNGGTYYADSVKGRFTISRDNAKNTVYLQMNSLKPEDTAVYYCAADPSSVGYHVEYDYWGQGTQVTVSS | low polyreactivity
5 | QVQLVESGGGLVQAGGSLRLSCAASGRIFDGYAIGWYRQAPGKERDLVAAISWGGGSTYYADSVKGRFTISRDNAKNTVYLQMNSLKPDDTAVYYCAGDGIWAREMDYWGQGTQVTVSS | low polyreactivity
6 | QVQLVESGGGLVQAGGSLRLSCAASGRIFDGYAIGWYRQAPGKERELVAAISSRGGRTYYADSVKGRFTISRDNAKNTVYLQMNSLKPEDTAVYYCAAVDPYGEGDYWGQGTQVTVSS | low polyreactivity
7 | QVQLVESGGGLVQAGGSLRLSCAASGRIFDHNAMGWYRQAPGKERELVAAINYSDDSTYYADSVKGRFTISRDNAKNTVYLQMNSLKPEDTAVYYCNADVGSEYSDKYDYWGQGTQVTVSS | low polyreactivity
8 | QVQLVESGGGLVQAGGSLRLSCAASGRIFDINAMGWYRQAPGKERELVAAINYNGSSTYYADSVKGRFTISRDNAKNTVYLEMNSLKPEDTAVYYCATEQVDVYTYDYWGQGTQVTVSS | high polyreactivity
9 | QVQLVESGGGLVQAGGSLRLSCAASGRIFDKYAMGWYRQAPGKERELVAAIDWSGGSTYYADSVKGRFTISRDNAKNTVYLQMNSLKPEDTAVYYCAAYWYYEDGQSEARLYGYDYWGQGTQVTVSS | low polyreactivity
10 | QVQLVESGGGLVQAGGSLRLSCAASGRIFDNYVMGWYRQAPGKERELVAAISSGGGTYYADSVKGRFTISRDNAKNTVYLQMNSLKPEDTAVYYCAKRRVYDRSFGRYDYWGQGTQVTVSS | low polyreactivity
11 | QVQLVESGGGLVQAGGSLRLSCAASGRIFDPYAMGWYRQAPGKERELVASISWSGGRTYYADSVKGRFTISRDNAKNTVYLQMNSLKPEDTAVYYCAARQWYRYKVRFDYWGQGTQVTVSS | high polyreactivity
12 | QVQLVESGGGLVQAGGSLRLSCAASGRIFDQYAMGWYRQAPGKERELVAVISSSGTTNYADSVKGRFTISRDNAKNTVYLQMNSLKPEDTAVYYCAARRQSWFVAAHMDYWGQGTQVTVSS | low polyreactivity
13 | QVQLVESGGGLVQAGGSLRLSCAASGRIFDVYAMGWYRQAPGKERELVATITGSGGGTYYADSVKGRFTISRDNAKNPVYLQMNSLKPEDTADYYCAADYYPTYAYYVSNVGYDYWGQGTQVTVSS | low polyreactivity
14 | QVQLVESGGGLVQAGGSLRLSCAASGRIFDWNMGWYRQAPGKDRELVAGITFSVDSTYYADSVKGRFTISRDNAKNTVYLQMNSLKPEDTAYWGQGTQVTVST | low polyreactivity
15 | QVQLVESGGGLVQAGGSLRLSCAASGRIFDYNAMGWYRQAPGKERELVAAISSRGGRTYYADSVKGRFTISRDNAKNTVYLQMNSLKPEDTAVYYCNTGWATDADDYWGQGTQVTVSS | high polyreactivity
16 | QVQLVESGGGLVQAGGSLRLSCAASGRIFDYNVMGWYRQPPGKESELVAAISWDGDSTYYADSVKGRFTISRDNAKNSVYLQMKSLKPEDTAVYYCNRVEGGTSWADEMNYWGQGTQVTVSS | low polyreactivity
17 | QVQLVESGGGLVQAGGSLRLSCAASGRIFDYYDMGWYRQAPGKERELVAAISNGGSTYYADSVKGRFTISRDNAKNTVYLQMNCLKPEDTAVYYCNNRWYYQYGQSHVRWYDYWGQGTQVTVSS | high polyreactivity
